{"source": "the DeepSol protein solubility set", "experiment": "soluble on expression in E. coli; label from the status in PepcDB or PDB records"}
{"sequence": "MSLGNDRWRAEFPLERIGTYEFRVEAWRDVFATLHADLEKKRAANTVLPVDVQEAVAAVQAAQARSDGALAERLQTVLTRIGAQSEPLQQLAIVLEPDTAQAMALADDKPFRSEYPVTFRVESERRAAHFSSWYELFPRSQSGDASRHGTFDDVIKRLPHIRAMNFDVLYMPPIHPIGLNNRKGRNNSVTAVEGEPGSPYAIGATDGGHTEVHAELGGLEGFRRLIEAARAQGLEVALDFAIQCAPDHPWLKEHKDWFTWRADGSIPYAENPPKKYQDIVNVDFYASGAVPDLWNTLRDAVLFWVNEGVTLFRVDNPHTKPFPFWEWLIADVRGRRPDVVFLSEAFTRPKMMYRLAKCGFSQSYTYFTWRNHKHELQAYVEELNDGVPRECFRPHFFVNTPDINPLFLQTSGRNGHLIRAALATTLSGLWGMYQGFELCEATPLAPGKEEYLDSEKFQLRAWPERVPGDIVEEITRFNQLRRMHPELQSHLGTRFYQAHNDQVLYYGKFLDAGYLSRSRSMVLVAINLDPHAGQDADIEIPLWELGLPDHASVAVEDLWDGHRFAWHGKYQHIRLEATRPFALWRIRAGEGHHHHHH", "values": [{"measurement": "soluble on expression in E. coli", "value": "not soluble"}]}
{"sequence": "MGSDKIHHHHHHMYEEWKIVKREAPILGNDQLIENIWKMKREDSPYDIISLHKVNLIGGGNDAVLILPGTWSSGEQLVTISWNGVHYTIPDYRKSIVLYLARNGFNVYTIDYRTHYVPPFLKDRQLSFTANWGWSTWISDIKEVVSFIKRDSGQERIYLAGESFGGIAALNYSSLYWKNDIKGLILLDGGPTKHGIRPKFYTPEVNSIEEMEAKGIYVIPSRGGPNNPIWSYALANPDMPSPDPKYKSISDFLMDSLYVTGSANPYDYPYSKKEDMFPILASFDPYWPYRLSLERDLKFDYEGILVPTIAFVSERFGIQIFDSKILPSNSEIILLKGYGHLDVYTGENSEKDVNSVVLKWLSQQR", "values": [{"measurement": "soluble on expression in E. coli", "value": "not soluble"}]}
{"sequence": "SLHAAKDEVRSRLMPINRAYNVEKLIEAIQYYQEKTNRRVTFEYGLFGGVNDQLEHARELAHLIKGLNCHVNLIPVNHVPERNYVKTAKNDIFKFEKELKRLGINATIRREQGSDIDAACGQLRAKERQVETR", "values": [{"measurement": "soluble on expression in E. coli", "value": "soluble"}]}
{"sequence": "MYQIISDSACDLTELYVKKHNIEIVPLTASLDGETYLKDKTEINRKDFYTTMVENPDIFPKTSLPSVESYETVFRKYAEQNIPVVCFTISIHLSGSYNSASMAKDVVEEDYPDAKIVVLDSQQDTVSQALIIDQVVRMQNDGIPFDTMIENTKKLMGTARIFFTVGSLDYLRIGGRIGKMAISATGKLGIKPIIILKDGEVNLGGVGRNRGKLKKNLIQIADKYLTENGKDNFVVSIGYGYDAIEGVAFKDEVEAGLGVKLNGDTNVEIGVITAVHTGPHAIGIGVIQKYETLK", "values": [{"measurement": "soluble on expression in E. coli", "value": "not soluble"}]}
{"sequence": "MGSDKIHHHHHHMALLFSGGTMSQVQSGILPEHCRAAIWIEANVKGEVDALRAASKTFADKLATFEAKFPDAHLGAVVAFGNNTWRALSGGVGAEELKDFPGYGKGLAPTTQFDVLIHILSLRHDVNFSVAQAAMEAFGDCIEVKEEIHGFRWVEERDLSGFVDGTENPAGEETRREVAVIKDGVDAGGSYVFVQRWEHNLKQLNRMSVHDQEMVIGRTKEANEEIDGDERPETSHLTRVDLKEDGKGLKIVRQSLPYGTASGTHGLYFCAYCARLHNIEQQLLSMFGDTDGKRDAMLRFTKPVTGGYYFAPSLDKLMAL", "values": [{"measurement": "soluble on expression in E. coli", "value": "not soluble"}]}
{"sequence": "MGSDKIHHHHHHVTFFERYSRVLFERYQGKVKYWLTFNEINGAQFMPMLSLGMAVREDENMLQSTYQGLHHQFVASSLATKAAREIDPTMQIGCMLIAAPVYPFSSNPVDVQFALEEERMMNYFCGDVHVRGAYPAFAGRFFSENNIELVVEDGDLELLRDYTVDFFSLSYYMSRTEKAEKDGNEAGGNIMSGVKNPYLKASDWGWEINPDGLRIILNKLYDRYQIPLFIVENGLGAYDEIIASNGATLTQTSVSK", "values": [{"measurement": "soluble on expression in E. coli", "value": "not soluble"}]}
{"sequence": "RNFKMIDNLSKVYGVELGYASRIKLLRAVFVNMAAAGASELAIDAGMDLMSMDLAGKVSARAGQGLGVGILTARLGLKAMALLRPLPWYPDRQVKLGTIRKAVVAKVASITMKP", "values": [{"measurement": "soluble on expression in E. coli", "value": "not soluble"}]}
{"sequence": "MKWTVQQLRRFQHKEMAIDETVDVSDLKQIDTLIRDISPVHVQGKADVGSTKFTFHLTLSGTMVLPCSRTLVDVAYPFSIQTTETFFADGSGIVETDEDTHMVAGDTIDLNPIIRELILLEIPLQLIAEGPVAGGAPQHGEGWDVLSEEEWEKAMQEREKKVDPRLAGLAKFFEEKREE", "values": [{"measurement": "soluble on expression in E. coli", "value": "not soluble"}]}
{"sequence": "MLAERGANITGLDISGPMLQQGREKAQATGVDDRVEFMRGDAARLPFPDDHFDTVFAMRFFHLADTPAAFLAEMRRVSKEQVFFDTFNRFSTRSIYNWALPMGSRLYSRWEIDRLLDGAGLELTDANHDWLLPYGFYRKIPNELAASFRSLDTALGGTPLGEKLASVSYWNTHVLEHHHHHH", "values": [{"measurement": "soluble on expression in E. coli", "value": "not soluble"}]}
{"sequence": "MGSDKIHHHHHHMSTLDIAEDNKIKNEEFKIWKKSIPSLYQHISSLKPIFGSGVDESPSTLRSIVFTNDSSCNKSKGVLSVPLLYSQGSEIFEVDCIVPLGLHYKKPESISEPLVQPDYTMESQKVEQTVLIPKWEFKGETIAKMIYVDNSEINVKVIALSTNGSLAWFREGVKSPVYTMMEPSTSLSSASSGNQNKPCVDFAISNDSKTLTVTKEKHLDNENATIKLIDNSGKIGEVLRTIPVPGIKNIQEIKFLNNQIFATCSDDGIIRFWGNEIGKKPLWILNDSLDGKTTCFAASPFVDTLFMTGTSGGALKVWDIRAVIALGDADAELNINQGHNKVNELFKVHHFYSEQVSKIEFSSISPMEVVTIGGLGNVYHWNFEPVFAIYNEIHEDFQGIISDELEAESMAFYHTEGCRREIGENNKVNTVAYHKYIEDLVATVDSDGLLTVYKPFTGKVLDGSREVGAAKS", "values": [{"measurement": "soluble on expression in E. coli", "value": "not soluble"}]}
{"sequence": "MDTIWELDFYSRPLVDENNKKIWELLVCDRQQQFQFSKTCAGAEANARWLAAALEEAMDQWRQQLGLAEGVQPQRVRFFRRAMSSIITRGGEAAGLVMVPSRRTFALYDWLRDRATNFYPTLPNYQADLATPPQLPPPAPQPLPPALQGDRWQLSGLPLGEIKTAAEWELPFGEVPPLPFLTLNDDTLLPGLIIYSQRALPLAGWLSGLEPASLSFEETPQPLLILETGASDRWILIRGRNPQIQKELAAFKDACTQSQGLHFIAVKEQPTQETLQGFWLLQQTPELLEHHHHHH", "values": [{"measurement": "soluble on expression in E. coli", "value": "soluble"}]}
{"sequence": "PETLVKVKDAEDQLCRTSHRPCRVGYIELDLNSGKILESFRPEERFPMMSTFKVLLCGAVLSRIDAGQEQLGRRIHYSQNDLVKYSPVTEKHLTDGMTVRELCSAAITMSDNTAANLLLTTIGGPKELTAFLHNMGDHVTRLDRWEPELNEAIPNDERDTTMPVAMATTLRKLLTGELLTLASRQQLIDWMEADKVAGPLLRSALPAGWFIADKSGAGRRGSRGIIAALGPDGKPSRIVVIYTTGSRKKTDERNRQIAEIGASLIKHWGLEQKLISEEDLNSAVDHHHHHH", "values": [{"measurement": "soluble on expression in E. coli", "value": "soluble"}]}
{"sequence": "MGSDKIHHHHHHMLFLKELESNLTVSKLMELCFEHPSYKDYCSVISTKKGEVLESLSPAGTKVYFVLSGIYGMIVEEDAEMEEESYKESIVRFLQKGDSFGLYHLFYDEWSPHVSMQSLGHGEVMEVDSNFLFSIFDKKDENNFFMIKVMAEELREAHTFAKLSFLKKEERIRKAILKCAQTLGTFSDNGILLPREITQEVLARYTNTSREYVAHTVMHLIKEDIIRNRPKPLLVMDKTRL", "values": [{"measurement": "soluble on expression in E. coli", "value": "not soluble"}]}
{"sequence": "MKGDRLKANVLAVRLIPNVDSDMAKELGLPNEHRSIGILTADCDDVTYTALDEATKKAVVDVAYGKSFYGGAANANTKLAGEVIGILSGPTPAEVKSGLAAAVDFIENEAAFISANDDDSIAYFAHCISRTGTYLSKTAGIPEGESLAYLIAPPLEAMYALDVALKAADVRLVAFYGPPSETNFGGGLLTGSQSACKAACDAFAEAVKFVADNPLNY", "values": [{"measurement": "soluble on expression in E. coli", "value": "soluble"}]}
{"sequence": "MGSDKIHHHHHHMPNNALLQIKQDTLSLIDDLKVICTSFGLGNDGNEYKIITQCFLYKFLCDKFEFLFEQEFPNQTIQDYKDFNKEEKEEFFITLTDKRLPKLAYDDLLNYLFEKHFNDNDLHLKLDIIFNRISSNNAELFNTTSTDKTTIALFESISQYINEESKRANFTRVLLDKLKKFNFKQAFLNLQNQQGYDFFAPIFEYLLKDYNNAGGGKYAEYYTPLSIASIIAKLLINEPTRNVKIYDPSAGTGTLLMALAHQIGTDSCTLYAQDISQKSLRMLKLNLILNDLTHSLRNAIEGNTLTNPYHSKDFKGKMDYIVSNPPFKLDFSNEHAEISQNKNDFFLGVPNIPKNNKSKMPIYTLFFQHCLNMLSNKGKGAIIVPTGFISAKSGVENKIIRHLVDERLVYGVVCMPSQVFANTGTNVSIIFFQKTPSAKEVVLIDASKLGEEYTENKNKKTRLRPSDIDLILETFQNKTKKSDFCALVSFDEITEKIIL", "values": [{"measurement": "soluble on expression in E. coli", "value": "not soluble"}]}
{"sequence": "MPVKLATALSNNLFPALDSQLRAGRHIGIEELENHVFLMDFQEVLEEFYSRYNVELIRAPEGFFYLRPRSTTLIPRSVLSELDMMVGKILCYLYLSPERLAHEGIFSQQELYEELLSLADESKLLKLVNQRSTGSDLDRQKLQEKVRTSLNRLRRLGMIYFMGNDSSKFRITESVFRFGADVRSGDDAREAQLRMIRDGEAMPVEGSLSLKDDSDDNDRTDDTAPETGEDELEHHHHHH", "values": [{"measurement": "soluble on expression in E. coli", "value": "not soluble"}]}
{"sequence": "TERFRLTLAQLNPTVGDLAGNAALARRAWDEARAAGSDMLALTEMFVTGYQTQDLVLRRAFVEEAMATIERLAADCAEGPAIGIGGPCLEDGRLMNAYWVLEGGRVSARVFKHHLPNAEVFDEKRVFSSGEVHGPCRVGPLRIGIPICEDSWHPDVCETLAETGAEILLVPNGSPYHREKLDVRVNLMVTRVVETGLPLVYLNMVGGQDDQVFDGASFVLNPHGRLMAQLPAFEEALVHVDFE", "values": [{"measurement": "soluble on expression in E. coli", "value": "not soluble"}]}
{"sequence": "SEMLASLKEHPNELLDLLNSIITDFELAVDDLIENFMQSDFDALKLTMHTTKGMALNLGLKILASQALELETQLKMNQVPAIEQLQMLINRLQVNIHQGHRLRDELVKAQQNSEQVF", "values": [{"measurement": "soluble on expression in E. coli", "value": "not soluble"}]}
{"sequence": "MGSDKIHHHHHHVPEQHICTYEYRLANPNPRPIVGRFQLNFTLDVNGCESGTPVLYLEHVQVHATVRYLKRGDLKLTLFSPSGTRSVLLPPRPQDFNANGFHKWPFLSVQQWGEDPRGTWLLMVESVTTNPAATGTFHDWTLLLYGTADPAQSGDPVYSATPATSQGVLSRVHQLTSQILITIAIHLVVNA", "values": [{"measurement": "soluble on expression in E. coli", "value": "not soluble"}]}
{"sequence": "MATTATRHQDSKLSEKAESILAGFKLNWMNLRDAETGKVLWQSTEDMADPKREHKAHVPKNLLKCRTVSREINFTSSVKIEKFRLEQRVYLKGTIIEEWYFDFGFVIPDSTNTWQNMIEAAPESQMFPPSVLSGNVVVETLFYDGDLLVSTSRVRLYYD", "values": [{"measurement": "soluble on expression in E. coli", "value": "not soluble"}]}
{"sequence": "MKLAYWMYAGPAHIGTLRISSSFRNVHAIMHAPLGDDYFNVMRSMLERERNFTPVTTSVVDRNVLARGSQEKVIDNILRKDTEERPDLIVLTPTCTSSILQEDLQNFVERAKESAQCDVLLADVNHYRVNELQAADRTLEQIVRFYLDRAQRQGTLPSQRTEQPSVNILGMTTLGFHNRHDTTELQRLMADLGITVNAVIPAGASVEELQHLPRAWFNLVPYREVGLLTAQYLQDTFDQPMVAIAPMGITATADCIRQIQQVLNQQGAAVDFEPFIDRQTRFASEAAWFSHSIDCQNLTGKRAVVFGDNTHAAAFTKILSREMGIHVVLAGTYCKHDADWFEAEVAGYCDRVLISDDHNAIADAIAELEPAAIFGTQMERHVGKRLNIPCGVIAAPVHIQNFPVGYRPFVGYEGANQIVDLVYNSFTLGMEDHLLEIFGGHDTKEVLTKTVSAGSDLDWKPDGLTELNRIPGFVRGKVKRNTEKYAREQGLTAITAEVLYAAKEALGALEHHHHHH", "values": [{"measurement": "soluble on expression in E. coli", "value": "not soluble"}]}
{"sequence": "MNLNQLTGADLMAARTHIGLSISAVAKLTGINRNTLSQFEQEKASLSGSEKKRLAGCYEERGYHFDEPQTTDETVLATRYDDARERLVDAAYDVNMNGLGEAVLALADASHDLLSMLARPMDVAQEEVELDAVELPESYLEMHNVLQRHFLADKAGQMQGKVGFFKEDADERSAKLIAYMAQQYLTLLHAEMPEVVSLERDSLDDDSDNARVLDALANWTFYDALKEMTV", "values": [{"measurement": "soluble on expression in E. coli", "value": "not soluble"}]}
